According to the supplement of paper PMC7877785:
± gives the uncertainty stated by the source.

Assay: self-splicing fitness, log relative to wild type (ln ratio); higher = more splicing; Tetrahymena group I intron in knt gene, E. coli kanamycin selection, DiMSum; sequences stand for … in CUCUCU…GGAGGGAAAAGUUAUCAGGCAUGCACCUGGUAGCUAGUCUUUAAACCAAUAGAUUGCAUCGGUUUAAAAGGCAAGACCGUCAAAUUGCGGGAAAGGGGUCAACAGCCGUUCAGUACCAAGUCUCAGGGGAAACUUUGAGAUGGCCUUGCAAAGGGUAUGGUAAUAAGCUGACGGACAUGGUCCUAACCACGCAGCCAAGUCCUAAGUCAACAGAUCUUCUGUUGAUAUGGAUGCAGUUCACAGACUAAAUGUCGGUCGGGGAAGAUGUAUUCUUCUCAUAAGAUAUAGUCGGACCUCUCCUUAAUGGGAGCUAGCGGAUGAAGUGAUGCAACACUGGAGCCGCUGGGAACUAAUUUGUAUGCGAAAGUAUAUUGAUUAGUUUUGGAGUACUCGUGGUCG
Outline: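 A randomised library covering all eight P1ex-region intron nucleotides was built with the intron in the knt kanamycin-resistance gene on pET-22b(+) and held in E. coli BL21(DE3). Cells were grown overnight at 37°C or 30°C on LB agar, with or without 25 μg/mL kanamycin, plus 100 μg/mL carbenicillin, 50 μM IPTG and 0.2% rhamnose, and pooled colonies were amplicon-sequenced on an Illumina HiSeq 2500. DiMSum fitness is the error-weighted combination of wild-type-normalised replicate fold changes, kanamycin versus none.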

Row | Sequence | self-splicing fitness (ln) (30 °C) | self-splicing fitness (ln) (37 °C)
1 | AUGCAGCAAUAUUACGCGAG | -3.82 ± 0.17 | -0.707 ± 0.11
2 | UAUUAGCAAUAUUACGUCGU | -2.82 ± 0.28 | -3.02 ± 0.32
3 | GAUCAGCAAUAUUACGGGCA | -0.237 ± 0.098 | -0.574 ± 0.11
4 | GUAGAGCAAUAUUACGUGGC | -1.52 ± 0.17 | -1.29 ± 0.27
5 | CCUAAGCAAUAUUACGGCAA | -3.72 ± 0.21 | -2.91 ± 0.23
6 | ACUGAGCAAUAUUACGGUGC | -3.32 ± 0.19 | -1.9 ± 0.18
7 | CCUGAGCAAUAUUACGCCGG |  | -1.71 ± 0.39
8 | UUCUAGCAAUAUUACGUCCG | -1.45 ± 0.25 | -0.81 ± 0.31
9 | CCGCAGCAAUAUUACGGUGC | -2.98 ± 0.18 | -2.63 ± 0.22
10 | ACGUAGCAAUAUUACGGACA | -1.1 ± 0.083 | -0.739 ± 0.092
11 | ACGCAGCAAUAUUACGCUUU | -1.69 ± 0.079 | -1.15 ± 0.11
12 | CUUCAGCAAUAUUACGGUUC | -3.39 ± 0.2 | -1.69 ± 0.18
13 | GCUCAGCAAUAUUACGGGAG | -2.46 ± 0.12 | -1.22 ± 0.11
14 | CUAAAGCAAUAUUACGCGUU | -3.08 ± 0.13 | -2.67 ± 0.27
15 | CAUCAGCAAUAUUACGGCGC | -2.95 ± 0.13 | -0.694 ± 0.15
16 | GUCAAGCAAUAUUACGGGCA | -3.61 ± 0.41 | -2.97 ± 0.3
17 | AUCCAGCAAUAUUACGUGUA | -1.71 ± 0.06 | -0.487 ± 0.059
18 | ACAUAGCAAUAUUACGAAUA | -2.06 ± 0.28 | -0.539 ± 0.2
19 | AUCUAGCAAUAUUACGAUCU | -1.03 ± 0.13 | 0.148 ± 0.15
20 | AACCAGCAAUAUUACGAUAA | -1.35 ± 0.058 | -0.457 ± 0.069
21 | CUUAAGCAAUAUUACGAAUA | -2.42 ± 0.27 | -3.17 ± 0.43

Row | Sequence | self-splicing fitness (ln) (30 °C) | self-splicing fitness (ln) (37 °C)
22 | CAUCAGCAAUAUUACGGGCG | -0.567 ± 0.069 | -0.377 ± 0.074
23 | CGGAAGCAAUAUUACGGAGC | -2.75 ± 0.26 | -1.88 ± 0.36
24 | CAUUAGCAAUAUUACGCAGA |  | -1.78 ± 0.31
25 | GCAGAGCAAUAUUACGACGC | -3.56 ± 0.3 | -1.69 ± 0.18
26 | CCGGAGCAAUAUUACGUAUA | -3.21 ± 0.23 | -2.49 ± 0.36
27 | GGCGAGCAAUAUUACGUUAU | -3.17 ± 0.17 | -1.3 ± 0.16
28 | UUGAAGCAAUAUUACGCUGA | -1.61 ± 0.15 | -0.574 ± 0.19
29 | UGAGAGCAAUAUUACGAAAG | -5.04 ± 0.28 | -2.86 ± 0.25
30 | CCCUAGCAAUAUUACGCGGG | -3.75 ± 0.23 | -1.92 ± 0.2
31 | AGGCAGCAAUAUUACGCUAA | -1.05 ± 0.097 | -0.682 ± 0.11
32 | GCGGAGCAAUAUUACGGAAU | -2.29 ± 0.21 | -3.42 ± 0.35
33 | AACCAGCAAUAUUACGAGAG | -3.44 ± 0.15 | -2.06 ± 0.12
34 | CUGAAGCAAUAUUACGCCCG | -0.0662 ± 0.23 | 0.309 ± 0.24
35 | CCCGAGCAAUAUUACGGCUG | -4.35 ± 0.39 | -2.72 ± 0.33
36 | UGAGAGCAAUAUUACGUGUG | -2.9 ± 0.14 | -2.28 ± 0.12
37 | ACGGAGCAAUAUUACGUAGG | -3.48 ± 0.26 | 
38 | CUAUAGCAAUAUUACGCCGU | -3.51 ± 0.29 | -2.6 ± 0.44
39 | CACAAGCAAUAUUACGGCGG | -0.406 ± 0.042 | -0.181 ± 0.052
40 | GUGCAGCAAUAUUACGCCCU | -1.57 ± 0.14 | -0.805 ± 0.16
41 | AGGUAGCAAUAUUACGUUUA | -2.151 ± 0.019 | -1.33 ± 0.034
42 | CUUCAGCAAUAUUACGGGGC | -2.93 ± 0.22 | -2.21 ± 0.34

Row | Sequence | self-splicing fitness (ln) (30 °C) | self-splicing fitness (ln) (37 °C)
43 | AGAUAGCAAUAUUACGUUAU | -3.23 ± 0.17 | -3.55 ± 0.25
44 | UUGUAGCAAUAUUACGGUCA | -0.412 ± 0.17 | -0.486 ± 0.2
45 | GCACAGCAAUAUUACGGCAU | -1.59 ± 0.095 | -0.16 ± 0.091
46 | ACUGAGCAAUAUUACGACAA | -2.96 ± 0.2 | -2.4 ± 0.23
47 | CGAAAGCAAUAUUACGCGCC | -1.85 ± 0.21 | 0.0231 ± 0.24
48 | UUUGAGCAAUAUUACGAAGU |  | -2.67 ± 0.3
49 | CCACAGCAAUAUUACGCGUU | -3.65 ± 0.092 | -2.91 ± 0.13
50 | CGUCAGCAAUAUUACGAUUA | -0.469 ± 0.17 | 0.0103 ± 0.13
51 | GGUUAGCAAUAUUACGAGGG | -3.05 ± 0.21 | -2.28 ± 0.34
52 | GAGGAGCAAUAUUACGGACG | -3.42 ± 0.36 | -0.785 ± 0.49
53 | UCCAAGCAAUAUUACGUUCC |  | -1.57 ± 0.31
54 | CCAAAGCAAUAUUACGUCUG | -0.9 ± 0.054 | -0.302 ± 0.066
55 | CAGCAGCAAUAUUACGGGCC | -3.41 ± 0.3 | -2.78 ± 0.24
56 | ACCCAGCAAUAUUACGAGUG | -1.74 ± 0.054 | -0.755 ± 0.058
57 | GGCGAGCAAUAUUACGCUAU | -2.55 ± 0.21 | -1.11 ± 0.18
58 | UUCGAGCAAUAUUACGAUAU | -3.85 ± 0.33 | -2.51 ± 0.49
59 | ACAAAGCAAUAUUACGGUCG | -1.24 ± 0.055 | -0.228 ± 0.08
60 | GAUAAGCAAUAUUACGUUCG | -1.42 ± 0.098 | -1.05 ± 0.14
61 | CGAAAGCAAUAUUACGCAAU | -3 ± 0.13 | -3.64 ± 0.26
62 | UGUUAGCAAUAUUACGGGAU | -1.94 ± 0.23 | 
